Patent US20260250320A1, “LIPIDATED PEPTIDE INHIBITORS OF INTERLEUKIN-23 RECEPTOR” (Janssen Pharmaceutica NV, priority 2023, published 2026)
*1 amine or outer side, *2 acyl side, *3 side chain or, on linkers, in order; H or OH if unused. Where a SMILES comes first, the peptide text is derived from it. Bridges are numbered along the chain shown (N, C = ends). Primed or numbered codes have the meaning given here. Where no end group is shown, it is not given here. Side-chain parts run from the residue outwards. [ ]: non-standard residue; d: D form. The star is where a group is joined. code d = side-chain group of K(d): lysine given as (2R)-2-(4-((5-amino-5-carboxypentyl)amino)-4-oxobutanamido)-3-carboxy-N,N,N-trimethylpropan-1-aminium, C[N+](C)(C)C[C@@H](CC(=O)O)NC(=O)CCC(=O)*; PEG12 = NCCOCCOCCOCCOCCOCCOCCOCCOCCOCCOCCOCCOCCC(=O)O; Trp(7-Me,2,3-dihydro) = Cc1cccc2c1NCC2C[C@H](N)C(=O)O; PEG2′ = PEG2 spacer unit (not further defined); Trp(7-Me) = Cc1cccc2c(C[C@H](N)C(=O)O)c[nH]c12; C20 diacid = O=C(O)CCCCCCCCCCCCCCCCCCC(=O)*; Phe(4-Me) = Cc1ccc(C[C@H](N)C(=O)O)cc1; γGlu = O=C(O)[C@H](CCC(=O)[*:2])N[*:1]; 2Nal = N[C@@H](Cc1ccc2ccccc2c1)C(=O)O; AEF = NCCOc1ccc(C[C@H](N)C(=O)O)cc1; 3Pal = N[C@@H](Cc1cccnc1)C(=O)O; succiniccarn = not defined here; NMeK = CN[C@@H](CCCCN)C(=O)O; Pen = CC(C)(S)[C@H](N)C(=O)O; PEG2(3) = not defined here; PEG2″ = PEG2 spacer unit; dAEF′ = not defined here; Thp = NC1(C(=O)O)CCOCC1; Sar = CNCC(=O)O

T1: IL-23R (Homo sapiens, UniProt Q5VWK5)
T1 construct: HEK293 cells containing IL-23R, IL-12Rβ1 and a firefly luciferase reporter gene driven by a STAT-inducible promoter (Promega); host or cells: HEK293
T1 sequence (Q5VWK5 24-629): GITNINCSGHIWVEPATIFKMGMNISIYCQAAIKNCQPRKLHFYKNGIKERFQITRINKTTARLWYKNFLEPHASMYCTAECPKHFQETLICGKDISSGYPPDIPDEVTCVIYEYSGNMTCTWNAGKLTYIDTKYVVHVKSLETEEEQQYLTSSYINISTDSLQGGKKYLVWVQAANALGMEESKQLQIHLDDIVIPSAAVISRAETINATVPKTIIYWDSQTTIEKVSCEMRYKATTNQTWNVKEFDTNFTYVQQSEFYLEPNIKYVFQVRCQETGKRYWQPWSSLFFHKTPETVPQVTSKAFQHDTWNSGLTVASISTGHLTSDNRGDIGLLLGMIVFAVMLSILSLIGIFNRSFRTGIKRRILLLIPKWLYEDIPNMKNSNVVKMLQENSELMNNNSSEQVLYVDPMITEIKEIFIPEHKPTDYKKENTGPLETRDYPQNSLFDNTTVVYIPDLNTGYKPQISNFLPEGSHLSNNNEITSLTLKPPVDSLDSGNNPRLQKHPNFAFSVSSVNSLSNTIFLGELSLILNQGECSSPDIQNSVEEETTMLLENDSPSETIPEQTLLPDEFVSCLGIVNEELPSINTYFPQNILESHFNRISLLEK

T2: interleukin-23 receptor (IL-23R) (UniProt Q5VWK5 24-629, limits assumed)
T2 sequence (looked up): T1 sequence (Q5VWK5 24-629)

B1: SEQ ID NO: 17 (peptide)
peptide: Ac-K[Pen]NT[Trp(7-Me)]K(Ac)[Pen]X[2Nal][Thp]EN[3Pal][Sar]-NH2
modifications: disulfide 2-7 (inferred); not fully specified (residues 1, 8); printed as MeCO-k(PEG2PEG2gEC18OH)-Pen(3)-N-T-7MeW-K(Ac)-Pen(3)-AEF(d)-2Nal-THP-E-N-3Pya-Sar-CONH2
B2: SEQ ID NO: 31 (peptide)
peptide: succiniccarn-[dR][Pen]NT[Trp(7-Me)]K(Ac)[Pen][AEF][2Nal][Thp]EN[3Pal][NMeK]([PEG2′-PEG2′-γGlu-C18OH])-NH2
modifications: disulfide 2-7 (inferred); reading uncertain; also: printed as succiniccarn-r-Pen(3)-N-T-7MeW-K(Ac)-Pen(3)-AEF-2Nal-THP-E-N-3Pya-NMeK(PEG2PEG2gEC18OH)-CONH2
B3: SEQ ID NO: 36 (peptide)
peptide: Ac-[dR][Pen]NT[Trp(7-Me)]K([PEG2′-PEG2′-γGlu-C18OH])[Pen][dAEF′][2Nal][Thp]EN[3Pal][Sar]-NH2
modifications: disulfide 2-7 (inferred); reading uncertain; also: printed as MeCO-r-Pen(3)-N-T-7MeW-K(PEG2PEG2gEC18OH)-Pen(3)-AEF(d)-2Nal-THP-E-N-3Pya-Sar-CONH2
B4: SEQ ID NO: 18 (peptide)
peptide: succiniccarn-[dR][Pen]K([PEG2(3)-PEG2(3)-γGlu-C18OH])T[Trp(7-Me)]K(Ac)[Pen][AEF][2Nal][Thp]EN[3Pal][Sar]-NH2
modifications: disulfide 2-7 (inferred); reading uncertain; also: printed as succiniccarn-r-Pen(3)-K(PEG2PEG2gEC18OH)-T-7MeW-K(Ac)-Pen(3)-AEF-2Nal-THP-E-N-3Pya-Sar-CONH2
B5: SEQ ID NO: 19 (peptide)
peptide: Ac-[dR][Pen]NT[Trp(7-Me)]K[Pen][AEF][2Nal][Thp]EN[3Pal]X-NH2
modifications: disulfide 2-7 (inferred); not fully specified (residues 6, 14); printed as MeCO-r-Pen(3)-N-T-7MeW-K(PEG2PEG2gEC18OH)-Pen(3)-AEF-2Nal-THP-E-N-3Pya-NMeK(d)-CONH2
B6: SEQ ID NO: 41 (peptide)
peptide: Ac-[dR][Pen]NT[Trp(7-Me)]K(Ac)[Pen][AEF][2Nal][Thp]K(code d)N[3Pal][NMeK]([PEG2′-PEG2′-γGlu-C18OH])-NH2
modifications: disulfide 2-7 (inferred)
B7: SEQ ID NO: 45 (peptide)
peptide: [dR][Pen]NT[Trp(7-Me)]K(Ac)[Pen][AEF][2Nal][Thp]K(code d)N[3Pal][Sar]-NH2
modifications: disulfide 2-7 (inferred); not fully specified (N-terminus); printed as HOC18gEPEG2PEG2CO-r-Pen(3)-N-T-7MeW-K(Ac)-Pen(3)-AEF-2Nal-THP-K(d)-N-3Pya-Sar-CONH2
B8: SEQ ID NO: 20 (peptide)
peptide: succiniccarn-[dR][Pen]NT[Trp(7-Me)]K([PEG2′-PEG2′-γGlu-C18OH])[Pen][AEF][2Nal][Thp]EN[3Pal][Sar]-NH2
modifications: disulfide 2-7 (inferred); reading uncertain; also: printed as succiniccarn-r-Pen(3)-N-T-7MeW-K(PEG2PEG2gEC18OH)-Pen(3)-AEF-2Nal-THP-E-N-3Pya-Sar-CONH2
B9: SEQ ID NO: 49 (peptide)
peptide: succiniccarn-[dR][Pen]NT[Trp(7-Me)]K(Ac)[Pen][AEF][2Nal][Thp]K([PEG2″-PEG2″-γGlu-C18OH])N[3Pal][Sar]-NH2
modifications: disulfide 2-7 (inferred); reading uncertain; also: printed as succiniccarn-r-Pen(3)-N-T-7MeW-K(Ac)-Pen(3)-AEF-2Nal-THP-K(PEG2PEG2gEC18OH)-N-3Pya-Sar-CONH2
B10: SEQ ID NO: 48 (peptide)
peptide: Ac-[dR][Pen]NT[Trp(7-Me)]K(code d)[Pen][AEF][2Nal][Thp]K([PEG2′-PEG2′-γGlu-C18OH])N[3Pal][Sar]-NH2
modifications: disulfide 2-7 (inferred)
B11: SEQ ID NO: 16 (peptide)
peptide: Ac-[dR][Pen]NT[Trp(7-Me)]K(Ac)[Pen]X[2Nal][Thp]EN[3Pal][NMeK]-NH2
modifications: disulfide 2-7 (inferred); not fully specified (residues 8, 14); printed as MeCO-r-Pen(3)-N-T-7MeW-K(Ac)-Pen(3)-AEF(d)-2Nal-THP-E-N-3Pya-NMeK(PEG2PEG2gEC18OH)-CONH2
B12: SEQ ID NO: 23 (peptide)
peptide: Ac-[dR][Pen]NT[Trp(7-Me)]K(Ac)[Pen][dAEF′][2Nal][Thp]EN[3Pal][Sar]K([PEG2′-PEG2′-γGlu-C18OH])-NH2
modifications: disulfide 2-7 (inferred); reading uncertain; also: printed as MeCO-r-Pen(3)-N-T-7MeW-K(Ac)-Pen(3)-AEF(d)-2Nal-THP-E-N-3Pya-Sar-K(PEG2PEG2gEC18OH)-CONH2
B13: SEQ ID NO: 50 (peptide)
peptide: XNTXXXXXXXNXXK
modifications: MeCO-Pen(3)-N-T-7MeW-K(Ac)-Pen(3)-AEF-2Nal-THP-K(d)-N-3Pya-Sar-K(PEG2PEG2gEC18OH)-CONH2
B14: SEQ ID NO: 32 (peptide)
peptide: {C18OH-γGlu-PEG2′-PEG2′}-[dR][Pen]NT[Trp(7-Me)]K(Ac)[Pen][dAEF′][2Nal][Thp]EN[3Pal][Sar]-NH2
modifications: disulfide 2-7 (inferred); reading uncertain; also: printed as HOC18gEPEG2PEG2CO-r-Pen(3)-N-T-7MeW-K(Ac)-Pen(3)-AEF(d)-2Nal-THP-E-N-3Pya-Sar-CONH2
B15: SEQ ID NO: 2 (peptide)
peptide: XNTXXXXXXXNXXK
modifications: not fully specified; MeCO-Pen(3)-N-T-7MeW-K(Ac)-Pen(3)-AEF-2Nal-THP-K(Ac)-N-3Pya-Sar-K(PEG2NMePEG2NMegENMeC18Tetrazole)-CONH2

Experiments:
[1] = system: IL-23-stimulated phosphorylated STAT3 in peripheral blood mononuclear cells (PBMCs); assay: PBMC pSTAT3 Assay; format: cell-based; settings: PBMCs from healthy donors; 30 min preincubation with peptide; IL-23 5 ng/mL for 30 min; phospho-STAT3 by MSD
In short: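 Phospho-STAT3 quantified by Meso Scale assay in lysates of PBMCs exposed to IL-23 (5 ng/mL, 30 min, 37 °C) after 30 min peptide pretreatment. Cells were cryopreserved donor PBMCs activated 4 days with anti-CD3 plus IL-1β (100 ng/mL) and starved ~4 h; IC50 reported.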

[2] = target: T1, IL-23R; assay: IL23R Reporter Assay; format: cell-based; settings: HEK293 cells containing IL-23R, IL-12Rβ1 and STAT-inducible firefly luciferase reporter; 10 ng/mL IL-23 (EC90); 5 h
In short: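 IC50 values were fitted with a 4-parameter Hill equation to luciferase signal, scaled between IL-23-only wells (0% inhibition) and 30 μM reference inhibitor (100%). The readout was a STAT-inducible reporter in IL-23R/IL-12Rβ1 HEK293 cells, stimulated with added 10 ng/mL IL-23 (EC90) for 5 h at 37° C and developed with BioGlo.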

[3] = target: T2, interleukin-23 receptor (IL-23R); assay: cell-based or functional assay

Molecule	IC50 [1]	IC50 [2]	PBMC pSTAT3 IC50 [3]
CC(=O)NCCCC[C@@H]1NC(=O)[C@H](CC2CNc3c(C)cccc32)NC(=O)[C@H]([C@@H](C)O)NC(=O)[C@H](CC(N)=O)NC(=O)[C@@H](NC(C)=O)C(C)(C)SSC(C)(C)[C@@H](C(=O)N[C@@H](Cc2ccc(C)cc2)C(=O)N[C@@H](Cc2ccc3ccccc3c2)C(=O)NC2(C(=O)N[C@@H](CCCCNC(=O)CCOCCOCCOCCOCCOCCOCCOCCOCCOCCOCCOCCOCCNC(=O)CC[C@H](NC(=O)CCCCCCCCCCCCCCCCCCC(=O)O)C(=O)O)C(=O)N[C@@H](CC(N)=O)C(=O)N[C@@H](Cc3cccnc3)C(=O)N(C)CC(N)=O)CCOCC2)NC1=O (stereo partly drawn) [compound 162, MeCO-Pen(3)-N-T-7MeW-K(Ac)-Pen(3)-AEF-2Nal-THP-K(PEG12gEC20OH)-N-3Pya-Sar-CONH2] (Ac-[Pen]NT[Trp(7-Me,2,3-dihydro)]K(Ac)[Pen][Phe(4-Me)][2Nal][Thp]K([PEG12-γGlu-C20 diacid])N[3Pal][Sar]-NH2; disulfide 1-6)	< 0.5 nM	50 to 500 nM	–
B1	–	–	< 0.5 nM
B2	–	–	< 0.5 nM
B3	–	–	< 0.5 nM
B4	–	–	< 0.5 nM
B5	–	–	< 0.5 nM
B6	–	–	< 0.5 nM
B7	–	–	< 0.5 nM
B8	–	–	< 0.5 nM
B9	–	–	< 0.5 nM
B10	–	–	< 0.5 nM
B11	–	–	< 0.5 nM
B12	–	–	< 0.5 nM
B13	–	–	< 0.5 nM
B14	–	–	< 0.5 nM
B15	–	–	< 0.5 nM
